Test results published in the nanobody polyreactivity screen of Harvey et al. (2022).

experiment: yeast display, Sf9 membrane polyspecificity reagent, FACS + sequencing; frameworks hold sequencing errors
How it was run: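 Using colony PCR, genes from sorted yeast display clones were amplified, then sequenced on MiSeq at 2 × 250 and filtered by CDR length. The clones had been stained with 10% biotinylated, detergent-solubilized Sf9 membrane reagent for 1 hour at 4 °C and sorted by FACS into low and high (top ~1%) gates on anti-HA and streptavidin fluorescence. Polyreactivity labels come from the gate of origin.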

Row | Sequence | polyreactivity (PSR sort gate)
1 | QVQLVESGGGLVQAGGSLRLSCAASGRTFWSNAMGWYRQAPGKERELVAAISTGAGSTYYADSVKGRFTISRDNAKNTVYLQMNSLKPEDTAVYYCAAVYNGALYTYYYWGQGTQVTVSS | high polyreactivity
2 | QVQLVESGGGLVQAGGSLRLSCAASGRTFWSNAMGWYRQAPGKERELVATISSGGGNTYYADSVKGRFTISRDNAKNTVYLQMNSLKPEDTAVYYCAATKYRWTYAASFGYWGQGTQVTVSS | high polyreactivity
3 | QVQLVESGGGLVQAGGSLRLSCAASGRTFWTKAMGWYRQAPGKEREFVAAISWRGASTFYADSVKGRFTISRDNAKNTVYLQMNSLKPEDTAVYYCAAESYIGKYGSYDYWGQGTQVTVSS | low polyreactivity
4 | QVQLVESGGGLVQAGGSLRLSCAASGRTFWTNAMGWYRQAPGKEREFVAGISQSGGSTYYADSVKGRFTISRDNAKNTVYLQMNSLKPEDTAVYYCATVKAYRRNYYYWGQGTQVTVSS | high polyreactivity
5 | QVQLVESGGGLVQAGGSLRLSCAASGRTFWVNAMGWYRQAPGKERELVAGITFRGGSTYYADSVKGRFTISRDNAKNTVYLQMYSLKPEDTAVYYCAADVTFVYSGRRVHYFYWGQGTQVTVSS | high polyreactivity
6 | QVQLVESGGGLVQAGGSLRLSCAASGRTFWVYAMGWYRQAPGKERELVAAIRRGGITNYADSVKGRFTISRDNAKNTVYLQMNSLKPEDTAVYSCATDNYGYLTRYYYWGQGTQVTVSS | low polyreactivity
7 | QVQLVESGGGLVQAGGSLRLSCAASGRTFWWYGMGWYRQAPGKDRELVAAITNGGSTNYADSVKGRFTISRDIAKNTVYLQMNSLKPEDTAVYYCAARTRSWYGGFYKYYYWGQGTQVTVSS | high polyreactivity
8 | QVQLVESGGGLVQAGGSLRLSCAASGRTFWYNAMGWYRPAPGKERELVAAIRGSGGSTYYADSVKGRFTISRDNAKNTVYLQLNSLKPEDTAVYYCAARGFYRRTYQYENNYWGQGTQVTVSS | high polyreactivity
9 | QVQLVESGGGLVQAGGSLRLSCAASGRTFWYNAMGWYSPAPGKERELLAVITKSGGSTYYADSVKGRFTISRDNAKNTVYLQMNSLKPEDTAVYYCAADTYVARSNYRYRGFDYWGQGTQVTVSS | high polyreactivity
10 | QVQLVESGGGLVQAGGSLRLSCAASGRTFWYYAMGWYRQAPGHERELVAAITGRGGRTYYADSVTGRFTISRDNAKNTVYLQMNSLKPEDTAVYYCAARLPYLGGYDYWGQGTQVTVSS | high polyreactivity
11 | QVQLVESGGGLVQAGGSLRLSCAASGRTFWYYAMGWYRQAPGKERELVAYADSVKGRFTISRDKAKNTVYLQMNSLKPEDTAVYYCAVGPVVWFSSSLYYTEYYYWGQGTQVTVSS | low polyreactivity
12 | QVQLVESGGGLVQAGGSLRLSCAASGRTFWYYDMGWYRQAPGKERELVATINNVGSTHYADSVKGRFTISRDNAKNNVYLQMNSLKPEDTSVYYCARASYGKMDYWGQGTQVTVSS | high polyreactivity
13 | QVQLVESGGGLVQAGGSLRLSCAASGRTFWYYTMGWYREAPGKERELVAAINWSGGSTYYADSVKGRFTISRDNAKNTVYLQMNSLKPEDTAVYYCAARRNGYFSAARDYGGQGTQVTVSS | high polyreactivity
14 | QVQLVESGGGLVQAGGSLRLSCAASGRTFYANAMGWYRQAPGKERELVAAISSRSGTTHYAHSVKGRFTISRDNAKNTVYLQMNSLKPEDTAVYYCAADSCDLYVWGYDHWGQGTQVTVSS | low polyreactivity
15 | QVQLVESGGGLVQAGGSLRLSCAASGRTFYANAMGWYRQAPGKERELVASITTSGGTYYADSVKGRFTISRDNAKNTVYLQMNSLKPEDTAVYYCAADVYRSIGYDYWGQGTQVTVSS | low polyreactivity
16 | QVQLVESGGGLVQAGGSLRLSCAASGRTFYAYAMGWYRQAPGKERELVATISSSDASTYYADSVKGRFTISRDNAKNTVNLQMNSLKPEETAVYYCNADFVRPSWARGRNNGLYYWGQGTQVTVSS | low polyreactivity

Row | Sequence | polyreactivity (PSR sort gate)
17 | QVQLVESGGGLVQAGGSLRLSCAASGRTFYDNAMGWYRQAPGKERELVAAITKSGGRTYYADSVKGRFTISRDFAKNTVYLQMNSLKPEDTAVYYCAASWPNYLYEYWGQGTQVTVSS | high polyreactivity
18 | QVQLVESGGGLVQAGGSLRLSCAASGRTFYDNTMGWYRQAPGKERELVAAISRGGSTYADSVEGRFTISRDNAKNTVYLQMNSLKPEDTAVYYCNKRSITTEYGYWGQGTQVTVSS | low polyreactivity
19 | QVQLVESGGGLVQAGGSLRLSCAASGRTFYDNTMGWYRQAPGKERELVAAITRNGGSTYYADSVKGRFTISRDNAKNTVYLQMNTLKPEDTAVYYCNAELGILSGVAEGPTFREYDYWGQGTQVNVSS | low polyreactivity
20 | QVQLVESGGGLVQAGGSLRLSCAASGRTFYDYAMGWYRQAPGKERELVASIRGSDGSTYYADSVKGRFTISRDNAKNTVYLQMNSLKPEDTEVYYCAARGFYGTNGRVYITSYYYWGQGTQVTVSS | high polyreactivity
21 | QVQLVESGGGLVQAGGSLRLSCAASGRTFYDYTMGWYRQAPGKERELVAAISQRGGSTYYADSVKGRFTISRDNAKNTVYLQMNSLKPEDTAVYYCAARTSYSGNKYYYWGQGTQVTVSS | high polyreactivity
22 | QVQLVESGGGLVQAGGSLRLSCAASGRTFYEYAMGWYRQAPGKERELVAAITIDGSTNYADSVKGRFTISRDNAKNTVYLQMNSLKPEDTAVYYCNARYLLYHGQHYRPYNYWGQGTQVTVSS | high polyreactivity
23 | QVQLVESGGGLVQAGGSLRLSCAASGRTFYEYTMGWYRQAPGKERELVAAITWSVGSTYYADSVKGRFTISRDNAKNTVYLQMNSLKPEDTAVYYCAAYYYVWYYYWGQGTQVTVSS | low polyreactivity
24 | QVQLVESGGGLVQAGGSLRLSCAASGRTFYFNAMRWYRQAPGKERELVAGISGDGSTNYADSVKGRFTISRDNAKNTVYLQMNSLKPEDTAVYYCAARIRPGYRTWYYSWGQGTQVTVSS | low polyreactivity
25 | QVQLVESGGGLVQAGGSLRLSCAASGRTFYFNSMGWYRQAPGKERELVASISYGSNTNYADSVKGRFTISRDNAKNTVYLQMNSLKPEDTAVYYCAVRWVYRTYSWGARYGRYDYWGQGTQVTVSS | high polyreactivity
26 | QVQLVESGGGLVQAGGSLRLSCAASGRTFYFNTMGWYRQAPGKERELVATISWSGGRTYYADSVKGRFTISRDNAKNTVYLQMNSLKPEDTAVYYCAAVRYRGFDYWGQGTQVTVSS | high polyreactivity
27 | QVQLVESGGGLVQAGGSLRLSCAASGRTFYFYAMGWYRHAPGKERELVAAITSGGGRTNYADSVKGRFTISRDNAKNTVYLQMNSLKPEDTSVYYCAAVLYGQYTGKYYFWGQGTQVTVSS | high polyreactivity
28 | QVQLVESGGGLVQAGGSLRLSCAASGRTFYFYAMGWYRQAPGKERELVAAITFSGGSTYYADSVKGRFTISRDNAKNTVYLQMNSLKPEDTAVYYCIAVSTYKREYWGQGTQVTVSS | low polyreactivity
29 | QVQLVESGGGLVQAGGSLRLSCAASGRTFYFYAMGWYRQAPGKERELVAAITWSDGTTYYADSVKGRFTISRDNAKNTVYLHMNSLKPEDTAVYYCAARVRIYGRRYNYWGQGTQVTVSS | high polyreactivity
30 | QVQLVESGGGLVQAGGSLRLSCAASGRTFYFYAMGWYRQAPGKERELVASITSSGGNTYYADSVKGRVTISRDNAKNTVYLQMNSLKPEDTAVYYCAARWFPWLQWKRYDYWGQGTQVTVSS | low polyreactivity
31 | QVQLVESGGGLVQAGGSLRLSCAASGRTFYFYAMGWYRQAPGKEWELVAAISWSGGRTYYADSVKGRFTISRDNAKNTVYLQMNSLNPEDTAVYYCAAEYRWSVGYWRYGLDDYWGQGTQVTVSS | high polyreactivity
